In patent US8945864B2, “Method of determining 1,5-anhydroglucitol, and reagent composition for determining 1,5-anhydroglucitol” (Ikeda Food Research Co., Ltd., priority 2006, dated 2015):

What was measured:
[1] = substrate: OCC1(O)OC[C@H](O)[C@@H](O)[C@@H]1O; experiment: Km value of sorbose dehydrogenase; format: biochemical, Sinorhizobium sp. 97507; conditions: other: Km of the sorbose dehydrogenase to the substrate; pH 7.0; 37.0 °C
Protocol: (§1) One mL of a 0.1 M potassium phosphate buffer, pH 7.0, 1.0 mL of 1.0 M L-sorbose, 0.14 mL of 3 mM 2,6-dichlorophenol indophenol (DCIP), 0.2 mL of 3 mM 1-methoxy-5-methylphenazinium methyl sulfate, and 0.61 mL of water were added to a 3 mL quartz cell, and the quartz cell was set to a spectrophotometer equipped with a thermostat cell holder, and incubated at 37° C. for ten minutes. Then, 0.05 mL of the enzyme solution was added to the quartz cell, and changes in absorbance of DCIP at 600 nm (AABS600/min) was measured at 37° C. As the molar extinction coefficient of DCIP at pH 7.0 is known as 16.3 mM^−1, and the amount of enzyme that reduced 1 μmol of DCIP for one minute is defined as one unit. Following the definition, the concentration of enzyme activity was calculated based on the following equation. enzyme activity (units/mL)=(−ΔABS600/min×3.0×dilution rate)/(16.3×1.0×0.05)
(§2) Measurement conditions in the above “method of measuring enzyme activity” were suitably modified as necessary, and the optimal pH, pH stability, optimal temperature, temperature stability, substrate specificity, Km value, total molecular weight, subunit molecular weight, inhibitor, and product of the enzyme reaction were identified. The properties of the enzyme were evaluated in accordance with the following tests.
[…]. […]

[2] = substrate: OC[C@H]1OC[C@H](O)[C@@H](O)[C@@H]1O; experiment: Km value of sorbose dehydrogenase; format: biochemical, Sinorhizobium sp. 97507; conditions: other: Km of the sorbose dehydrogenase to the substrate; pH 7.0; 37.0 °C
Protocol: as §1, §2
[…]. […]

[3] = Optimal temperature of sorbose dehydrogenase; format: biochemical; conditions: 50 mM potassium phosphate buffer, pH 7.0; 35° C. to 70° C.; FIG. 5
[4] = Optimal pH of sorbose dehydrogenase; format: biochemical; conditions: buffers pH 3.71-9.11, 33.3 mM; FIG. 3
[5] = Temperature stability of sorbose dehydrogenase; format: physicochemical; conditions: pH 7.0, FIG. 6

B1: sorbose dehydrogenase (Sinorhizobium meliloti 1021) (protein)
chain: MMEGFDYVIVGGGSSGCVLAARLSENPSVRVCLIEAGGRDRHPLIHMPVGFAKLTAGPMTWGLTTAPQKHANNREIPYAQARVLGGGSSINAEVYTRGHPRDYDRWVEEGADGWSFQEVKPYFLRSEGNTILSGEWHGTDGPLGVSNLPDPQPMTRAFVQSCQELGIPYNPDFNGPVQEGAGVYQTTIRNSRRCSAAVGYLRPALARKNLMLITGALVLRIVFQGRRAVGVEYSTGGAAKIARAESEVLVTSGAIGTPKLMMLSGVGPAASLRSHGIDVVQDMAGVGQNLHDHFGVDIVAELKGHDSLDKYNKFHWMLLAGIEYALFKSGPVASNVVEGGAFWYGDRASPYPDLQFHFLAGAGAEAGVPSVPKGSSGVTLNSYTVRPKSRGSVTLRSADPRALPIVDPNFLDDPDDLRISVEGIRISREIFGQPSLQKYIKTIRFPDESVRTQADFEAYARQYGRTSYHPTCTCKMGRDDMSVVDPQLRVHGLDGIRICDSSVMPSLVGSNTNAATIMIGEKAADLIRGNI
Km [1]: 65.6 mM
Km [2]: 82.5 mM

B2: sorbose dehydrogenase: recombinant sorbose dehydrogenase from Sinorhizobium sp. 97507, amino acid sequence SEQ ID NO: 2, produced in E. coli JM109/pUCNNT2_AGD1 (protein)
chain: MMEGFDYVIVGGGSSGCVLAARLSENPSVRVCLIEAGGRDRHPLIHMPVGFAKLTAGPMTWGLTTAPQKHANNREIPYAQARVLGGGSSINAEVYTRGHPRDYDRWVEEGADGWSFQEVKPYFLRSEGNTILSGEWHGTDGPLGVSNLPDPQPMTRAFVQSCQELGIPYNPDFNGPVQEGAGVYQTTIRNSRRCSAAVGYLRPALARKNLMLITGALVLRIVFQGRRAVGVEYSTGGAAKIARAESEVLVTSGAIGTPKLMMLSGVGPAASLRSHGIDVVQDMAGVGQNLHDHFGVDIVAELKGHDSLDKYNKFHWMLLAGIEYALFKSGPVASNVVEGGAFWYGDRASPYPDLQFHFLAGAGAEAGVPSVPKGSSGVTLNSYTVRPKSRGSVTLRSADPRALPIVDPNFLDDPDDLRISVEGIRISREIFGQPSLQKYIKTIRFPDESVRTQADFEAYARQYGRTSYHPTCTCKMGRDDMSVVDPQLRVHGLDGIRICDSSVMPSLVGSNTNAATIMIGEKAADLIRGNI
modifications: Sinorhizobium sp. 97507
Optimal temperature [3]: around 60 °C
Optimal pH [4]: 8.0
Residual ratio of enzyme activity ([5]; 45° C. for ten minutes): 77%
Temperature at which the enzyme is stable ([5]; ten minutes): ≤ 45 °C
